Consider 1 molecule from paper PMC6506533, “Initial state of DNA-Dye complex sets the stage for protein induced fluorescence modulation”.

The target of the data set is FEN1 (human, UniProt P39748 1-380). The data set can be described thus: fluorescence anisotropy; rotational correlation time decreases on binding; RPA reaction buffer with 50 mM KCl or FEN1 reaction buffer (full composition not in material); steady-state measurements at room temperature; proteins in excess over Kd (Kd stated only as low nM). As to conditions: protein: recombinant; tags: none left (His6-SUMO cleaved); label: 5' flap tip pCy3; nicked double flap: 3 strands, 5' flap 4 nt, 3' flap 1 nt.
Sequence of FEN1 (P39748 whole entry): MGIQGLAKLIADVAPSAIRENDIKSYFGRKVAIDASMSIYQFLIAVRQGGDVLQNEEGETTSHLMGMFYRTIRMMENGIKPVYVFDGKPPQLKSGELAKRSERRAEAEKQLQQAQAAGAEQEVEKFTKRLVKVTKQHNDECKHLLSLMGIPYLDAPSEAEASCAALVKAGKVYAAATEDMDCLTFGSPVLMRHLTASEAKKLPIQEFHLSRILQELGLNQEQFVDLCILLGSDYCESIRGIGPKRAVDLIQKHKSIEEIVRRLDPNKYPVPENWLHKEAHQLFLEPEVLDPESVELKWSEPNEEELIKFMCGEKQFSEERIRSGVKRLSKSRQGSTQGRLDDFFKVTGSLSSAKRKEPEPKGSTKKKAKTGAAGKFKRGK

B1: DF-4,1 pCy3 (structured_DNA)
DNA 1: GATGACGAGCAGTCCTAACTGGAAATCTAGCTCTGTGGAG
DNA 2: CTCCACAGAGCTAGATTTCCC
DNA 3: TTTAAGTTAGGACTGCTCGTCATC
In the case of B1, the binding result is “binds”.
